Data as given in the supplement of paper PMC10724198.
± gives the standard deviation of the averaged measurements.

system: Saccharomyces cerevisiae; experiment: protein stability index of tFT-peptide fusion (C-terminal peptide) (PSI (0-1 scale)); higher = more stable (slower turnover); details: genetic background: wild type; temperature: 30 C
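Also: PSI is a weighted mean of sequencing reads over stability bins, variants kept only with over 10 reads, mCherry proximal and sfGFP distal, peptide attached via GGGS linker.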

Sequence | protein stability index
RPHVLAHSLLLS | 0.584 ± 0.011
RPLLVPVSSTPP | 0.716 ± 0.045
RPLYPGSKVQLL | 0.691 ± 0.024
RPNQNAFACMSP | 0.702 ± 0.026
RPPPLLSPPSPP | 0.718 ± 0.026
RPPPPASPPSAP | 0.588 ± 0.076
RPPPPSPRPTRR | 0.755 ± 0.032
RPPRNLDPSVSI | 0.646 ± 0.13
RPPSPPLPPPLS | 0.6906 ± 0.0013
RPRLQNLSRSNV | 0.74 ± 0.074
RPSHSPAFSAFF | 0.681 ± 0.024
RPSLPPSPLLRP | 0.729 ± 0.0049
RPSPLPALASSL | 0.65 ± 0.037
RPSPPPLRPFVL | 0.576 ± 0.025
RPSTRARPKPTP | 0.693 ± 0.0086
RPTLPGGSPYYS | 0.75 ± 0.05
RPTTPKCSSPKP | 0.753 ± 0.11
RPTTTQPPPTAS | 0.62 ± 0.022
RPVPPPLPSPPP | 0.702 ± 0.016
RPVSALESPQAG | 0.727 ± 0.059
RQCAACLGNPST | 0.665 ± 0.1
RQFRKKNTLKSE | 0.65 ± 0.1
RQGGTMVRLLGY | 0.651 ± 0.089
RQIPAQAVKHVL | 0.588 ± 0.02
RQKEVSISYCWI | 0.646 ± 0.12
RQLSSFSDRSGS | 0.715 ± 0.022

Sequence | protein stability index
RQSITIAQPGRP | 0.643 ± 0.014
RQSREGKANRRW | 0.742 ± 0.049
RQVSRLFQGKKN | 0.707 ± 0.03
RRAESRNEKQHS | 0.687 ± 0.017
RRAGHYHYSVRL | 0.704 ± 0.053
RRAVLDSPSRRY | 0.786 ± 0.031
RRDIIMTKKTLH | 0.658 ± 0.069
RRGRNGGKADLR | 0.657 ± 0.0073
RRGTEGLGGGVG | 0.6265 ± 0.0052
RRHNPARSRARG | 0.686 ± 0.053
RRIFTLIARRLW | 0.672 ± 0.013
RRKSEYAYNTKN | 0.565 ± 0.036
RRLRWQNKIIGI | 0.868 ± 0.13
RRLVGEEGRTHV | 0.638 ± 0.05
RRNESHAGGRGP | 0.778 ± 0.07
RRPAQDAEPIQP | 0.661 ± 0.067
RRRGTYTYSLLL | 0.73 ± 0.014
RRRKGTKNMQSK | 0.727 ± 0.061
RRRMVYPLPPTL | 0.641 ± 0.052
RRRPSPKASILS | 0.719 ± 0.011
RRRSGAPVMRGS | 0.645 ± 0.074
RRSASRQFLLNP | 0.73264 ± 0.00024
RRSENHTEHKGD | 0.712 ± 0.032
RRSLKIQKNMKR | 0.686 ± 0.083
RRSPYLPRILTP | 0.661 ± 0.023
RRSVSSRGCLFR | 0.7 ± 0.008

Sequence | protein stability index
RRTGTFSGLAGL | 0.696 ± 0.0071
RRTYERRVATSR | 0.691 ± 0.031
RRVDVRKGRLTP | 0.753 ± 0.096
RRVKRGGARKEA | 0.654 ± 0.019
RRVRTTKKGLTI | 0.7266 ± 0.0036
RRYWVLSTVPVL | 0.615 ± 0.028
RSCAGGVGAVFF | 0.758 ± 0.055
RSCFLSLFFFGF | 0.653 ± 0.036
RSEIKKPIVIKT | 0.576 ± 0.045
RSFGRVVSCSGC | 0.6993 ± 0.0056
RSGGDGCRALSV | 0.708 ± 0.064
RSGSVGGMECHV | 0.7 ± 0.18
RSHPPPPVSRSP | 0.651 ± 0.045
RSHPRQSGLRTA | 0.652 ± 0.039
RSKDEKNKIGYK | 0.683 ± 0.044
RSPKGKKRVGKW | 0.714 ± 0.039
RSPPPFLSIFPL | 0.745 ± 0.01
RSPSFLRSFPAL | 0.686 ± 0.016
RSRGSTKLKNLI | 0.817 ± 0.056
RSRKKKERWKTE | 0.707 ± 0.015
RSRRPALVLSGN | 0.729 ± 0.011
RSRRRFPPPPPI | 0.672 ± 0.062
RSSCVRGVTLAL | 0.695 ± 0.023
RSSEVQADRMCQ | 0.668 ± 0.025
RSSFCGVRAWLA | 0.704 ± 0.078
RSSKCRGQKGLG | 0.687 ± 0.014

Sequence | protein stability index
RSSLSGLPPLPP | 0.721 ± 0.14
RSSPVPLSCRKG | 0.66 ± 0.037
RSVPPSSPPPYF | 0.699 ± 0.037
RSVWVGGVTNLG | 0.657 ± 0.063
RSWISGVRPSYP | 0.75 ± 0.036
RTCPSPSAHLRL | 0.741 ± 0.0085
RTECRCCVGEVG | 0.656 ± 0.069
RTKIEIKNRENI | 0.774 ± 0.12
RTKMKERTCEEG | 0.697 ± 0.02
RTLNILCGGALR | 0.691 ± 0.049
RTLPFPHAGLLF | 0.6816 ± 0.0061
RTPPCLTPLEET | 0.713 ± 0.037
RTQRGRMGGEQG | 0.762 ± 0.12
RTRPALPSPPPH | 0.725 ± 0.022
RTRSKVSVSFND | 0.728 ± 0.043
RTSKRKKSDARK | 0.784 ± 0.022
RTTDPHNRPIRP | 0.6552 ± 0.0047
RTWNSIESRKIK | 0.706 ± 0.074
RVANCGDGSIAV | 0.652 ± 0.053
RVAPITARLAPH | 0.859 ± 0.12
RVCKALKNDNLI | 0.73 ± 0.07
RVGGGRDVRGGG | 0.723 ± 0.042
RVGQDGFRVAGC | 0.594 ± 0.12
RVISIIREQEPV | 0.677 ± 0.034
RVKFIEQASRFV | 0.764 ± 0.12
RVPPGSPYPPLL | 0.7319 ± 0.0028

Sequence | protein stability index
RVPVSQHARTRN | 0.6744 ± 0.0055
RVQFYVGSPALR | 0.69684 ± 0.00031
RVQLTLKGTGVT | 0.629 ± 0.029
RVRGEHKLIGRA | 0.652 ± 0.034
RVRQQKIFPSLD | 0.7057 ± 0.0062
RVSACVDGHVFL | 0.643 ± 0.0071
RVSTIEAEINLR | 0.708 ± 0.012
RVSVFILGWFRD | 0.532 ± 0.018
RVSVSWDDGVMV | 0.652 ± 0.0088
RVWQGRDGTVMK | 0.659 ± 0.019
RVYKTAYNRRTQ | 0.832 ± 0.021
RVYYPSGVKCRL | 0.671 ± 0.033
RWAVYDKNRETP | 0.657 ± 0.05
RWGGVVRGCSGG | 0.687 ± 0.036
RWGVRFWVGDSV | 0.687 ± 0.017
RWHLCERFGGRV | 0.643 ± 0.1
RWLEIQKRRGRI | 0.643 ± 0.1
RWPPPPPELPPP | 0.655 ± 0.039
RWREGWGGFSLG | 0.665 ± 0.025
RWVRGDVFQGFC | 0.693 ± 0.052
RYAGGHRIGFLI | 0.649 ± 0.025
RYLDPPLPLPRT | 0.6921 ± 0.0046
RYNRMVERALKY | 0.677 ± 0.027
RYYKKQNWKIGL | 0.663 ± 0.13
SAAPVTLSRLPP | 0.699 ± 0.071
SAAVLRWLASAG | 0.683 ± 0.059

Sequence | protein stability index
SAEKKRAKCERR | 0.68 ± 0.01
SAGARIRPADAL | 0.6801 ± 0.0022
SAGPVYAGGVAS | 0.6895 ± 0.0068
SAIGVGGGGTGG | 0.676 ± 0.0082
SAKARTNHAFQF | 0.678 ± 0.0097
SALLPSPGPPAF | 0.656 ± 0.089
SAPGIGFYTKSL | 0.653 ± 0.064
SARWTSRIQDRS | 0.652 ± 0.02
SASSPLPPAATG | 0.652 ± 0.051
SAVARVGDVIAV | 0.613 ± 0.059
SAVWWDRLDIRK | 0.687 ± 0.012
SAWGLVLVGSWG | 0.602 ± 0.011
SAYASCFGSESL | 0.675 ± 0.05
SCCPVESSHSLP | 0.612 ± 0.055
SCDLRALALLGG | 0.707 ± 0.07
SCLGSGVSWGVW | 0.731 ± 0.0053
SCLHRDLSDTCQ | 0.66536 ± 0.00012
SCLVWTWVSSVL | 0.573 ± 0.067
SCPLSARLYASL | 0.675 ± 0.079
SCPPSARLSNTC | 0.7506 ± 0.00063
SCPSFVWLSFPQ | 0.7142 ± 0.0056
SCRVVSGLAIWW | 0.734 ± 0.15
SCSHYLPAPLPF | 0.577 ± 0.0074
SCVDRAVGCRVS | 0.6961 ± 0.0042
SCYTEQRVMICL | 0.592 ± 0.0023
SDHVYHFRLTRV | 0.709 ± 0.076

Sequence | protein stability index
SDKGKSSVSGSN | 0.678 ± 0.012
SDLGLHGRVPST | 0.6671 ± 0.0014
SDPPPPPDPPSP | 0.673 ± 0.032
SDSREAVLTEEP | 0.625 ± 0.13
SEGRMHGLFLLN | 0.544 ± 0.022
SELKNKKRKHAK | 0.706 ± 0.034
SESKCRPKVSQP | 0.689 ± 0.065
SEVRLMSVTSHS | 0.7417 ± 0.0038
SFAPPPPPPLPS | 0.686 ± 0.025
SFARPNTRALPT | 0.656 ± 0.13
SFARPSFVRPFA | 0.694 ± 0.017
SFEFSSRVFSLD | 0.714 ± 0.055
SFFSSSRVCLGF | 0.685 ± 0.11
SFHRICTYVLRP | 0.634 ± 0.089
SFILPFISPLLF | 0.565 ± 0.022
SFLLGLCHFYGS | 0.718 ± 0.04
SFLRHSCFPSVP | 0.736 ± 0.023
SFPHLARRLLSP | 0.673 ± 0.06
SFPPLRPSPPLL | 0.667 ± 0.019
SFPPPPFPPLFL | 0.722 ± 0.023
SFSFPFGCSSRF | 0.7195 ± 0.0046
SFSPLHVGPSPL | 0.6843 ± 0.0048
SFSSHPPFAPSF | 0.745 ± 0.018
SFVFSVFGAGVD | 0.778 ± 0.014
SFVRTLSCISIF | 0.513 ± 0.053
SFWWCSARSFQG | 0.715 ± 0.03

Sequence | protein stability index
SFWWGGWGVGPD | 0.73647 ± 0.0004
SFYFAPLLSPFA | 0.597 ± 0.036
SGAGGGGWGGGV | 0.7535 ± 0.0062
SGARDLVILTPW | 0.713 ± 0.013
SGAWSGGGESGH | 0.596 ± 0.058
SGCLGGGRGGWG | 0.657 ± 0.013
SGCVGGSDVALS | 0.721 ± 0.018
SGDLLLGCTLVV | 0.6313 ± 0.0018
SGDVENQMGEES | 0.717 ± 0.062
SGEVFEDLRAPE | 0.743 ± 0.038
SGEVGVGHWVGG | 0.6812 ± 0.0053
SGFKRWSDVGDY | 0.6815 ± 0.0057
SGGADYMDPRLT | 0.714 ± 0.027
SGGCVGLAVAGG | 0.702 ± 0.056
SGGGGGGDCVGA | 0.687 ± 0.015
SGGGRAECGEVR | 0.702 ± 0.021
SGGQGCGGGWNV | 0.708 ± 0.011
SGGVRDDFLWVL | 0.728 ± 0.016
SGHFGTATTLCF | 0.749 ± 0.011
SGKKKVSAQRII | 0.6709 ± 0.0023
